Values of other authors in PMC8002558.

Biological target: Fibrinogen (Homo sapiens) (UniProt P02671)
Chain of UniProt P02671 (P02671 36-866, chain 1 of 3): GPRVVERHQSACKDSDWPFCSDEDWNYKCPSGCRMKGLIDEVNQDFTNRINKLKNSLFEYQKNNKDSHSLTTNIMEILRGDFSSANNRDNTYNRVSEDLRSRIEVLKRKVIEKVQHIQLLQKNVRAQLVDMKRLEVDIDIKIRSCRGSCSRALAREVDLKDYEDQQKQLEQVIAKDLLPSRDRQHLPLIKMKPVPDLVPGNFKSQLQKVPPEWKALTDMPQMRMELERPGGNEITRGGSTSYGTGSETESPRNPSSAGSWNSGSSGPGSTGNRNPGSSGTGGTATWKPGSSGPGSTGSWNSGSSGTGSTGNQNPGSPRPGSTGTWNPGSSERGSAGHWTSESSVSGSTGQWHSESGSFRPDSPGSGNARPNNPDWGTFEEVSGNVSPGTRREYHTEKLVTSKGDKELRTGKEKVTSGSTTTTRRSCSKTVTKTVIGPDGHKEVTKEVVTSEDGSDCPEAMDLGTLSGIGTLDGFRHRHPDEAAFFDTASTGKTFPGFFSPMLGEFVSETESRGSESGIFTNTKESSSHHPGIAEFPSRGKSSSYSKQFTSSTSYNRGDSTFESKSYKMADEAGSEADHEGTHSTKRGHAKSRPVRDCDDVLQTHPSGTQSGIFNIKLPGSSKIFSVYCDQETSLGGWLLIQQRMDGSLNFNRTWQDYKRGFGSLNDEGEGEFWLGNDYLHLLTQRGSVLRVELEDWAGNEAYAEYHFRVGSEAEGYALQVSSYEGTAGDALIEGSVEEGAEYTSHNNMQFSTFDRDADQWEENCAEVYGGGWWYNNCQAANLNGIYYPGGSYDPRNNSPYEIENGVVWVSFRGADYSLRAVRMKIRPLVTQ
Chain of UniProt P02671 (P02675 45-491, chain 2 of 3, further chain): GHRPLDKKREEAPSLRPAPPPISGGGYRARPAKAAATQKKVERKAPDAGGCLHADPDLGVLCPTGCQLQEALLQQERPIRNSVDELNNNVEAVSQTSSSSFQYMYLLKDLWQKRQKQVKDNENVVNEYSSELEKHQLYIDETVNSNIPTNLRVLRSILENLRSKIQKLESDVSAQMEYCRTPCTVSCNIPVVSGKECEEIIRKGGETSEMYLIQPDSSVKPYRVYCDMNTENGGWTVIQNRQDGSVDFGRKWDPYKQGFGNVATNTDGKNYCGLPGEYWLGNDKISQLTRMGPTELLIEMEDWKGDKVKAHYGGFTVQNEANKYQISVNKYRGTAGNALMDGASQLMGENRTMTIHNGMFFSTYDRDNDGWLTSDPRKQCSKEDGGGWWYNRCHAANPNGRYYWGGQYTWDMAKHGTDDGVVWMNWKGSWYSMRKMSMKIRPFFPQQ
Chain of UniProt P02671 (P02679 27-453, chain 3 of 3, further chain): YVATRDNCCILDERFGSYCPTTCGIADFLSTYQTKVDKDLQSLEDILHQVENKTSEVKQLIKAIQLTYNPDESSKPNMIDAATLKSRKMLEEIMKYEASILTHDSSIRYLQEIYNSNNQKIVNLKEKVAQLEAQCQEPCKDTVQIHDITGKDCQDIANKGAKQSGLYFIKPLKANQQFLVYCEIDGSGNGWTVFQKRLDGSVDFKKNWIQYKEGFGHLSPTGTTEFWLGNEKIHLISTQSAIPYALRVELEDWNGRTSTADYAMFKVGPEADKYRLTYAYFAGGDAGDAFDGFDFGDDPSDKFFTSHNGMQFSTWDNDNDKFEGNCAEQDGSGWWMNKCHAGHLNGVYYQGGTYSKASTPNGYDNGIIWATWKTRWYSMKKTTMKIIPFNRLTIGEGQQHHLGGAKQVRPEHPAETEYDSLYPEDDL

Kd: 10 nM
Substance: Factor XIII (plasma) (from UniProt P00488)
